Measured values reported in the Human Domainome abundance scans (Beltran et al. 2025).
± gives the uncertainty stated by the source.

B1: Peripheral plasma membrane protein CASK, residues 488 to 569; numbered along this chain, O14936 (parent)
chain: VRLVQFQKNTDEPMGITLKMNELNHCIVARIMHGGMIHRQGTLHVGDEIREINGISVANQTVEQLQKMLREMRGSITFKIVP

Variants of: B1
Experiment: abundance fitness (aPCA) (normalised: wild type 0, dead -1); higher = more abundant; growth selection in yeast, the domain comes from the species named
Settings: Homo sapiens

Row | Variant | abundance fitness
1 | R30E | 0.027 ± 0.036
2 | R30D | -0.012 ± 0.063
3 | R30G | -0.005 ± 0.024
4 | R30S | -0.007 ± 0.033
5 | R30N | 0.012 ± 0.063
6 | R30L | -0.283 ± 0.035
7 | G15D | -0.276 ± 0.037
8 | G15A | -0.395 ± 0.04
9 | G15F | -0.427 ± 0.041
10 | G15V | -0.682 ± 0.048
11 | H38R | -0.209 ± 0.023
12 | H38C | -0.129 ± 0.036
13 | H38A | -0.028 ± 0.024
14 | H38F | -0.057 ± 0.045
15 | H38D | -0.043 ± 0.035
16 | L69D | -0.73 ± 0.073
17 | L69M | -0.029 ± 0.033
18 | L69I | -0.08 ± 0.055
19 | L69V | -0.038 ± 0.027
20 | L69Y | -0.357 ± 0.06
21 | M68K | 0 ± 0.031
22 | M68H | -0.019 ± 0.04
23 | M68R | 0.002 ± 0.021
24 | M68I | -0.068 ± 0.053

Row | Variant | abundance fitness
25 | M68L | -0.032 ± 0.024
26 | M68T | -0.039 ± 0.03
27 | E12H | -0.154 ± 0.07
28 | E12Q | -0.063 ± 0.049
29 | E12M | -0.016 ± 0.04
30 | E12G | -0.059 ± 0.024
31 | E12R | -0.143 ± 0.027
32 | E12Y | -0.237 ± 0.07
33 | E12L | -0.131 ± 0.033
34 | V28G | -0.992 ± 0.045
35 | V28T | -0.651 ± 0.051
36 | V28K | -1.16 ± 0.12
37 | V28C | -0.272 ± 0.036
38 | R50T | -0.028 ± 0.043
39 | R50P | -0.774 ± 0.13
40 | R50F | -0.211 ± 0.15
41 | R50H | -0.148 ± 0.11
42 | V1P | -0.376 ± 0.11
43 | V1W | -0.122 ± 0.047
44 | V1A | -0.119 ± 0.033
45 | V1H | -0.207 ± 0.069
46 | T42S | 0.005 ± 0.024
47 | T42Q | 0.003 ± 0.031
48 | T42L | -0.003 ± 0.024

Row | Variant | abundance fitness
49 | T42D | -0.007 ± 0.032
50 | T42V | -0.019 ± 0.023
51 | T42K | 0.025 ± 0.031
52 | T42C | -0.025 ± 0.031
53 | T42G | 0.005 ± 0.02
54 | T42R | -0.038 ± 0.02
55 | T61I | -0.642 ± 0.071
56 | T61Q | -0.047 ± 0.031
57 | S56K | 0.02 ± 0.033
58 | S56V | -0.064 ± 0.023
59 | S56W | -0.275 ± 0.03
60 | S56T | -0.028 ± 0.031
61 | S56R | -0.052 ± 0.021
62 | L43V | -0.021 ± 0.024
63 | L43F | 0.052 ± 0.055
64 | L43W | -0.662 ± 0.041
65 | L43T | -0.76 ± 0.06
66 | L43Q | -1.01 ± 0.1
67 | L43C | -0.308 ± 0.038
68 | E71A | -0.03 ± 0.025
69 | E71S | -0.013 ± 0.029
70 | V45W | -0.464 ± 0.12
71 | V45A | -0.045 ± 0.043
72 | V45T | 0.022 ± 0.075

Row | Variant | abundance fitness
73 | V45G | -0.548 ± 0.054
74 | V45D | -0.178 ± 0.079
75 | D47H | -1.03 ± 0.27
76 | V81L | 0.005 ± 0.027
77 | V81F | -0.02 ± 0.038
78 | G54T | -0.17 ± 0.049
79 | G54A | -0.191 ± 0.034
80 | G54L | -0.636 ± 0.066
81 | G54C | -0.254 ± 0.051
82 | G54H | -0.076 ± 0.11
83 | G54F | -0.043 ± 0.079
84 | G54E | -0.076 ± 0.04
85 | L65P | -1.02 ± 0.11
86 | L65W | -0.049 ± 0.028
87 | L65D | -1.07 ± 0.17
88 | L65M | -0.057 ± 0.035
89 | L65Q | -0.33 ± 0.039
90 | L18Y | -0.277 ± 0.15
91 | L18D | -1.13 ± 0.23
92 | L18R | -0.986 ± 0.07
93 | V62Q | -0.068 ± 0.034
94 | V62C | -0.044 ± 0.032
95 | V62P | -0.032 ± 0.031
96 | V62L | -0.018 ± 0.025

Row | Variant | abundance fitness
97 | V62R | -0.1 ± 0.02
98 | R2N | 0.091 ± 0.057
99 | R2S | -0.084 ± 0.036
100 | R2M | 0.019 ± 0.033
101 | R2D | -0.149 ± 0.054
102 | G41M | -0.233 ± 0.036
103 | G41D | -0.065 ± 0.033
104 | G41Q | -0.113 ± 0.034
105 | V4C | -0.165 ± 0.04
106 | V4A | -0.199 ± 0.027
107 | V4G | -0.677 ± 0.028
108 | V4W | -0.307 ± 0.028
109 | V4S | -0.392 ± 0.033
110 | P82N | -0.048 ± 0.084
111 | P82A | -0.016 ± 0.046
112 | P82E | -0.047 ± 0.076
113 | P82S | -0.021 ± 0.035
114 | P82W | -0.359 ± 0.091
115 | C26E | -0.909 ± 0.059
116 | C26I | 0.032 ± 0.05
117 | C26Y | -0.07 ± 0.048
118 | C26L | -0.083 ± 0.026
119 | C26Q | -0.708 ± 0.059
120 | H25I | -0.073 ± 0.047

Row | Variant | abundance fitness
121 | H25A | -0.016 ± 0.024
122 | H25G | -0.046 ± 0.021
123 | I37M | -0.021 ± 0.03
124 | I37Y | -0.38 ± 0.056
125 | I37E | -0.378 ± 0.032
126 | Q66Y | -0.038 ± 0.051
127 | I52R | -0.649 ± 0.45
128 | G46Q | -0.61 ± 0.084
129 | G46Y | -1.02 ± 0.28
130 | G46S | -0.491 ± 0.041
131 | I76R | -1.06 ± 0.065
132 | I76Y | -0.339 ± 0.074
133 | I76L | -0.112 ± 0.028
134 | I76H | -0.544 ± 0.1
135 | I76N | -0.186 ± 0.051
136 | L23N | -0.038 ± 0.051
137 | L23A | 0.039 ± 0.028
138 | L23E | 0.086 ± 0.028
139 | L23Q | 0.043 ± 0.035
140 | Q60C | -0.01 ± 0.033
141 | Q60M | -0.047 ± 0.031
142 | F78C | -0.233 ± 0.052
143 | F78P | -0.998 ± 0.12
144 | F78K | -0.964 ± 0.15

Row | Variant | abundance fitness
145 | F78N | -0.922 ± 0.16
146 | F78L | -0.007 ± 0.027
147 | F78A | -0.473 ± 0.047
148 | F78V | -0.198 ± 0.035
149 | F78D | -1.22 ± 0.36
150 | E51R | -0.264 ± 0.2
151 | A29V | -0.11 ± 0.034
152 | A29Q | -0.008 ± 0.044
153 | A29L | -0.188 ± 0.041
154 | A29I | -0.115 ± 0.066
155 | I55F | -0.065 ± 0.047
156 | I55A | -0.016 ± 0.024
157 | N9R | -0.031 ± 0.021
158 | N9D | 0.024 ± 0.033
159 | N9L | 0.019 ± 0.024
160 | Q7P | -0.177 ± 0.034
161 | Q7W | -0.037 ± 0.025
162 | Q7I | 0.074 ± 0.036
163 | N59W | -0.157 ± 0.03
164 | N59H | -0.006 ± 0.044
165 | N59D | -0.038 ± 0.034
166 | N59I | -0.324 ± 0.051
167 | N59C | -0.114 ± 0.043
